Consider one molecule from patent publication US20150276749A1 (KONICA MINOLTA, published 2015).

The target in assay [1] is T1, soluble-type human DSG3-mouse IgG2aFc fusion protein (human; mouse, UniProt P32926 50-616).
T1 construct: also called human desmoglein 3; desmoglein 3 standard; not shown: mouse IgG2a Fc, printed 'mouse IgG2aFc' and 'mouse IgG2 constant region'
T1 sequence: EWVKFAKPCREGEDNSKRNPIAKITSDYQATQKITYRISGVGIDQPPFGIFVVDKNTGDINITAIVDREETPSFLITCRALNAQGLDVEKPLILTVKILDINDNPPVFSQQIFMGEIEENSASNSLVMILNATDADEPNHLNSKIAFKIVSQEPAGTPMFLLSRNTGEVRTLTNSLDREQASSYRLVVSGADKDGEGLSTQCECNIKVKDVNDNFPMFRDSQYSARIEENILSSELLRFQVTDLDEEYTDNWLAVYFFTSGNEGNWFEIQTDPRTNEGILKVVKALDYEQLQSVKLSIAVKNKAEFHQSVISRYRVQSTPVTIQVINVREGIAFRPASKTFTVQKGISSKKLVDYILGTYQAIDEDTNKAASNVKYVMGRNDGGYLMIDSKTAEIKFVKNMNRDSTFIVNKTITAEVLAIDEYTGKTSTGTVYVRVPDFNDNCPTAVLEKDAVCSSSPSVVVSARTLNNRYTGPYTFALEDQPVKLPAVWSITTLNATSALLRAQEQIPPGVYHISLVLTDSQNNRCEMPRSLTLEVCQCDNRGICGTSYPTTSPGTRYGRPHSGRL
The assay is described as follows: sandwich ELISA, luminescence over blank; immobilized DF151, detection MAB1720; antigen 1 pg/mL. On the procedure: (§1) Subsequently, the antigen solutions having the above-described concentrations were each added to the plate in an amount of 50 μL/well, and the plate was incubated at room temperature for 1 hour. Then, the antigen solution was removed, and the plate was washed with 0.05% Tween 20-PBS three times. Thereafter, the 1-μg/mL biotinylated antibody solution was added in an amount of 50 μL/well, and the plate was incubated at room temperature for 1 hour.
(§2) Then, after removing the streptavidin-HRP solution and washing the plate with 0.05% Tween 20-PBS three times, a substrate solution (SuperSignal ELISA Femto Maximum Sensitivity Substrate (registered trademark); Pierce Biotechnology, Inc.) was added in an amount of 100 μL/well. One minute thereafter, the luminescence intensity was measured using a luminometer, Fluoroskan Ascent FL (trade name, Thermo Electron Corporation).
(§3) The numerical values shown in Table 1 represent the minimum values of the antigen solution concentration having an S/N ratio of higher than 2 (hereinafter, referred to as “detection limit concentration”) and the unit of the numerical values is pg/mL. […]

The target of assay [2] is T1, soluble-type human DSG3-mouse IgG2aFc …. The assay is described as follows: sandwich ELISA, luminescence over blank; immobilized DF151, detection DF151; antigen 10 pg/mL. The procedure:
as §1, §2, §3

Assay [3] has the same target. Kind of assay: sandwich ELISA, luminescence over blank; immobilized DF151, detection DF151; antigen 200 pg/mL. The procedure: as §1, §2
(§4) The numerical values shown in Table 1 represent the minimum values of the antigen solution concentration having an S/N ratio of higher than 2 (hereinafter, referred to as “detection limit concentration”) and the unit of the numerical values is pg/mL. The S/N ratio was determined by dividing the luminescence intensity at the respective antigen solution concentrations ([…]) by the luminescence intensity of an antigen-free blank antigen solution (0 μg/mL).

For assay [4] the target is unchanged. Kind of assay: sandwich ELISA, luminescence over blank; immobilized DF151, detection DF151; antigen 40 pg/mL. The procedure: as §1, §2, §4
Assay [5] has the same target. Kind of assay: sandwich ELISA, luminescence over blank; immobilized DF151, detection DF151; antigen 5000 pg/mL. The procedure: as §1, §2, §4
The target is the same in assay [6]. The assay is described as follows: sandwich ELISA, luminescence over blank; immobilized DF151, detection D219-3; antigen 1 pg/mL. On the procedure: as §1, §2, §3
The target is the same in assay [7]. The assay is described as follows: sandwich ELISA, luminescence over blank; immobilized DF151, detection D219-3; antigen 40 pg/mL. On the procedure:
as §1, §2, §4

For assay [8] the target is unchanged. Kind of assay: sandwich ELISA, luminescence over blank; immobilized DF151, detection MAB1720; antigen 5000 pg/mL. The procedure: as §1, §2, §4
The target is the same in assay [9]. The assay is described as follows: sandwich ELISA, luminescence over blank; immobilized DF151, detection MAB1720; antigen 40 pg/mL. The procedure: as §1, §2, §4
Assay [10] has the same target. Kind of assay: sandwich ELISA, luminescence over blank; immobilized DF151, detection MAB1720; antigen 200 pg/mL. On the procedure:
as §1, §2, §4

For assay [11] the target is unchanged. Kind of assay: sandwich ELISA, luminescence over blank; immobilized DF151, detection DF151; antigen 25000 pg/mL. On the procedure:
as §1, §2, §4

Assay [12] shares this target. Kind of assay: sandwich ELISA, luminescence over blank; immobilized DF151, detection DF151; antigen 1 pg/mL. On the procedure: as §1, §2, §4

B1: DF151 (DF151[I] antibody) (antibody, mouse IgG2b, kappa, V domains shown)
VH: EVQLQQSGPELVKPGASVKISCKASGYSFTAYYMHWVKQSPEKCLEWIGQINPSTGGTTYNQKFKAKATLTVDKSSSTAYMQLKSLTSEDSAVYYCARWGDSWGQGTTLTVSS
VL: DIVLTQSPASLAVSLGQSVTISCRASESVEYYGTSLMQWYQQKPGQPPKLLIYGASDVESGVPARFSGSGSGTDFSLNIHPVEEDDIAMYFCQQSRKVPYTFGSGTKLEIKR
notes: Complete antibody; Biotinylated as detection antibody in ELISA; labeled with Alexa Fluor 647 as detection antibody in SPFS; also called DF151 antibody
As to B1, the S/N ratio in assay [1] stood at 1; in [2] it was 0.9; in assay [3] it was 1.2; in assay [4], 0.9; in assay [5], 11.1; in assay [6], 0.8. For the same molecule, the S/N ratio in [7] was determined as 0.8; in assay [8] it was 17.7; in [9], 1.1; in assay [10], 1.6; in [11] it was 55.2; in assay [12], 0.9.
